Test results published in patent US20020031803A1.

What was measured:
human RB protein (human) = human RB protein (human) (UniProt P06400)
human p107 (human) = human p107 (human) (UniProt P28749)
UniProt P28749, sequence (P28749 whole entry): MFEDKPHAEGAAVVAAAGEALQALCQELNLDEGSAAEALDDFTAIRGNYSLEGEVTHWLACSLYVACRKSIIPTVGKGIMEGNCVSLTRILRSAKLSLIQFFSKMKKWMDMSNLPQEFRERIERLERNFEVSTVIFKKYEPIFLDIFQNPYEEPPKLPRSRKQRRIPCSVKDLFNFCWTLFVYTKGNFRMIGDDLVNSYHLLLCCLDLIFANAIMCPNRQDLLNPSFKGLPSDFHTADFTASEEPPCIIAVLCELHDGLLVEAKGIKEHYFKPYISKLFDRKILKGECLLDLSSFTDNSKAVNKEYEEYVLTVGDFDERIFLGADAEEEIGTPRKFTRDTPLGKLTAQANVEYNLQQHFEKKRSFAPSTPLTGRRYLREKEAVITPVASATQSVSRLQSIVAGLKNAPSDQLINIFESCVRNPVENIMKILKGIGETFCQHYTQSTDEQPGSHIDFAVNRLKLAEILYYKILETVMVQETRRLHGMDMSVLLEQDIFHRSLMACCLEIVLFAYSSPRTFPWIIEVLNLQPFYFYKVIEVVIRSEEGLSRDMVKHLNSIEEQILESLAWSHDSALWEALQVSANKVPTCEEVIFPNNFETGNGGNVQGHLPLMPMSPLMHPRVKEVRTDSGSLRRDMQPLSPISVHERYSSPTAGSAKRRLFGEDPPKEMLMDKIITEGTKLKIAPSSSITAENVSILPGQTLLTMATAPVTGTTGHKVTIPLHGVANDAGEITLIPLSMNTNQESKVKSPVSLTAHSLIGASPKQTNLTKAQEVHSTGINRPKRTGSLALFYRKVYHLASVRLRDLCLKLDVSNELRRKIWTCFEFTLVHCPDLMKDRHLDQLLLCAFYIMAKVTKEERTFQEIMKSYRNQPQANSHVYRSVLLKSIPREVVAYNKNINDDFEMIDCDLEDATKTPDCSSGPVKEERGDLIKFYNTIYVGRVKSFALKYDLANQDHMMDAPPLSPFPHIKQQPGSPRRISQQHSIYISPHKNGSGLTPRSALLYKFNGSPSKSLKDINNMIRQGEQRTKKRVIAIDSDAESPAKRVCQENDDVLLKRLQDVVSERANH

UniProt P06400, sequence (P06400 whole entry): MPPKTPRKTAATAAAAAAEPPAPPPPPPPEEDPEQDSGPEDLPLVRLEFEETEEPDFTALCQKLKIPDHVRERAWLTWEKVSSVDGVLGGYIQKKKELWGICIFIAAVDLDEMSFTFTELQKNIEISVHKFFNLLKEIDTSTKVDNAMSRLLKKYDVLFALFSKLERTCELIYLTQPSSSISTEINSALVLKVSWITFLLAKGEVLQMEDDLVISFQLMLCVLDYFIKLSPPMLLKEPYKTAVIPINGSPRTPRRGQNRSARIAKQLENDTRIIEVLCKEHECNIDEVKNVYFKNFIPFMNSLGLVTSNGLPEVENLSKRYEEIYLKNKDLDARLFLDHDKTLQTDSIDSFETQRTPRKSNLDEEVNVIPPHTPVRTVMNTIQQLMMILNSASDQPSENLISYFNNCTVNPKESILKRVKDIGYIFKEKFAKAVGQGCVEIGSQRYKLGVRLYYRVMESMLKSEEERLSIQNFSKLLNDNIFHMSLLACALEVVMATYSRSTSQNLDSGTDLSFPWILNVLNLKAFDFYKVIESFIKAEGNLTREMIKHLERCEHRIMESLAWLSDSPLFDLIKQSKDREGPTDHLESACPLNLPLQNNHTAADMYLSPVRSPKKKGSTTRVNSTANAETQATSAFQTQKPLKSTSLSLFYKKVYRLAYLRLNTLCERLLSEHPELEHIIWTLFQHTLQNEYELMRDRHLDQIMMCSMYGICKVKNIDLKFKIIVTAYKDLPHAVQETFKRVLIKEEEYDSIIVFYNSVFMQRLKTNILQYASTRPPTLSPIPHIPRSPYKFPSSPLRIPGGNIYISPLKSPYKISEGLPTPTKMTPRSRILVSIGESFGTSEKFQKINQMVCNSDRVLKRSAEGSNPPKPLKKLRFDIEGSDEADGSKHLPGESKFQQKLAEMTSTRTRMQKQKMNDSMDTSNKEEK

Substance	Observed signal compared to T, % (human RB protein (human))	Observed signal compared to T, % (human p107 (human))
107-T mutant SV40 large T antigen (lysine for glutamic acid at codon 107) (from UniProt P03070 1-708) (other; other documents disagree on this pair)	0.03%	0%
wild-type SV40 large T antigen (from UniProt P03070 1-708) (other; other documents disagree on this pair)	100%	100%
